Assay results taken from paper PMC7589614.

Key:
[1] = biological target: protein A (Staphylococcus aureus, UniProt P02976 37-485); test: porous silicon RIFTS (EOT) biosensor; apparent, mass-transfer limited; Hill fit R2 0.9177; Selection buffers listed (assay buffer and temperature not stated in material): AGR2 137 mM NaCl, 20 mM KCl, 10 mM Na2HPO4, 2 mM KH2PO4 pH 7.4; 6H7 50 mM K2HPO4
[2] = biological target: T1, tyrosinase (Bacillus megaterium (printed …, UniProt B2ZB02 1-297)); test: porous silicon RIFTS (EOT) biosensor; apparent, mass-transfer limited; Hill fit R2 0.9731; Selection buffers listed (assay buffer and temperature not stated in material): AGR2 137 mM NaCl, 20 mM KCl, 10 mM Na2HPO4, 2 mM KH2PO4 pH 7.4; 6H7 50 mM K2HPO4
T1 sequence: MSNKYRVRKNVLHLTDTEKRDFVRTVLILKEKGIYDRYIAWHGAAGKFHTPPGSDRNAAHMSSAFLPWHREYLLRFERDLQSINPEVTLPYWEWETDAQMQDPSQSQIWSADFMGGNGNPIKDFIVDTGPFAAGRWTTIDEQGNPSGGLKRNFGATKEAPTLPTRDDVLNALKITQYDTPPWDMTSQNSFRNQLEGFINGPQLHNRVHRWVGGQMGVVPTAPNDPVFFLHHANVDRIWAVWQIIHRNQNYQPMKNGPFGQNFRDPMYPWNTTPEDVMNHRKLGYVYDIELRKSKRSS

[3] = biological target: AGR2 (UniProt O95994 21-175); test: porous silicon RIFTS (EOT) biosensor; apparent, mass-transfer limited; Hill fit R2 0.9951; Selection buffers listed (assay buffer and temperature not stated in material): AGR2 137 mM NaCl, 20 mM KCl, 10 mM Na2HPO4, 2 mM KH2PO4 pH 7.4; 6H7 50 mM K2HPO4
Chain of AGR2 (O95994 21-175): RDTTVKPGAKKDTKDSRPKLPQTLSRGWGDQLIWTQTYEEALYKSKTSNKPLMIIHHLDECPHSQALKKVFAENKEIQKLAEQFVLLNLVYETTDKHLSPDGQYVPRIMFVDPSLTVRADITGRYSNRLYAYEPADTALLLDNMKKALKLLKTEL

Chain of protein A (P02976 37-485): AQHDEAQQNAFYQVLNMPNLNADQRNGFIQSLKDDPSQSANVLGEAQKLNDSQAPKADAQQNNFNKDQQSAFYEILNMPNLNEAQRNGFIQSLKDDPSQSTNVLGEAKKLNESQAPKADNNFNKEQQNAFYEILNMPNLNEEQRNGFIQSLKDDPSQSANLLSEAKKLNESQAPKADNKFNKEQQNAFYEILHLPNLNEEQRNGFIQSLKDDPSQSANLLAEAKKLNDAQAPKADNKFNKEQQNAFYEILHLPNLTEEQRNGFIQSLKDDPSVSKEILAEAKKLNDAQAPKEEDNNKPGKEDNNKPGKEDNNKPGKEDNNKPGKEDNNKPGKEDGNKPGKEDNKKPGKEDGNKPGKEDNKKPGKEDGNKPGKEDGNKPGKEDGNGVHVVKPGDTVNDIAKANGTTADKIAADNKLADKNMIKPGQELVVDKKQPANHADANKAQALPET

B1: anti-protein A aptamer PA#2/8[S1-58] (ssDNA)
DNA: ATACCAGCTTATTCAATTAGCAACATGAGGGGGATAGAGGGGGTGGGTTCTCTCGGCT
modifications: 3'-amino-C6
Question: B1 was tested. Which Kd [1] did it give?
Answer: 14 ± 1 µM

Question: How did the Kd [2] turn out when GCTATGGGTGGTCTGGTTGGGATTGGCCCCGGGAGCTGGC (ssDNA, 5'-amino) [anti-his tag aptamer 6H7] was run?
Answer: 31 ± 7 µM

Question: With TCTCGGACGCGTGTGGTCGGGTGGGAGTTGTGGGGGGGGGTGGGAGGGTT (ssDNA, 5'-amino) [anti-AGR2 aptamer] as the binder, how does the Kd [3] read?
Answer: 21 ± 1 µM
